Measurements reported in patent US20220403044A1 (ACADEMIA SINICA, published 2022).

B1: EpCAM-V5 (other, UniProt P16422 24-314, looked up)
chain: QEECVCENYKLAVNCFVNNNRQCQCTSVGAQNTVICSKLAAKCLVMKAEMNGSKLGRRAKPEGALQNNDGLYDPDCDESGLFKAKQCNGTSMCWCVNTAGVRRTDKDTEITCSERVRTYWIIIELKHKAREKPYDSKSLRTALQKEITTRYQLDPKFITSILYENNVITIDLVQNSSQKTQNDVDIADVAYYFEKDVKGESLFHSKKMDLTVNGEQLDLDPGQTLIYYVDEKAPEFSMQGLKAGVIAVIVVVVIAVVAGIVVLVISRKKRMAKYEKAEIKEMGEMHRELNA
notes: whole, on cells; also called exogenous EpCAM; not shown: V5 tag
B2: EGF-like domain II-deleted EpCAM mutant (EpCAMΔEGFII), V5-tagged (other, UniProt P16422 24-314, looked up)
chain: QEECVCENYKLAVNCFVNNNRQCQCTSVGAQNTVICSKLAAKSERVRTYWIIIELKHKAREKPYDSKSLRTALQKEITTRYQLDPKFITSILYENNVITIDLVQNSSQKTQNDVDIADVAYYFEKDVKGESLFHSKKMDLTVNGEQLDLDPGQTLIYYVDEKAPEFSMQGLKAGVIAVIVVVVIAVVAGIVVLVISRKKRMAKYEKAEIKEMGEMHRELNA
notes: whole, on cells; also called EGF domain-deleted mutant EpCAM-V5; not shown: V5 tag

Tests used:
EGFR-Flag [1] = biological target: T1, EGFR-Flag (UniProt P00533 25-1210, limits assumed); assay: co-IP from HEK293T cells overexpressing EpCAM-V5 and EGFR-Flag (FIG. 1C)
T1 construct: whole, on cells; also called exogenous EGFR; not shown: Flag tag
Experimental: (§1) FIGS. 1A to 1H. EpEX binds to EGFR through its EGF-like domain I. (FIG. 1A) Immunoprecipitation (IP) of affinity cross-linked EpEX-Fc bound to EGFR from HCT116 cells. (FIG. 1B) EpEX-Fc was added to EGFRECD-coated ELISA plates and detected by TMB colorimetric peroxidase assay. (FIG. 1C) 293T cells were transfected with EGFR-Flag and EpCAM-V5. IP was performed with anti-V5 antibody (left panel) or anti-Flag antibody (right panel) followed by Western blotting. (FIG. 1D) 293T cells were transfected with EGFR-Flag and EGF domain-deleted mutant EpCAM-V5. The protein interaction was probed by IP with anti-V5 antibody and Western blotting with anti-Flag antibody. (FIG. 1E) In culture media from 293T cells with EGFRECD-Flag and EpEX-Fc transfection, IP was performed with Dynabeads® Protein G and detected by Western blotting with anti-Flag antibody. (FIG. 1F) 293T cells were transiently transfected with EGFRECD-Flag and EGF domain-deleted mutant EpEX-Fc. […] (FIG. 1G) Purified EGFRECD-6×His and EGF domain-deleted mutant EpEX-Fc were incubated and IP was performed with Dynabeads® Protein G and detected by Western blotting. (FIG. 1H) HCT116 cells were starved and treated with wild-type or EGF domain-deleted mutant EpEX, and EGFR signaling was analyzed by Western blotting. […]

EGFR-Flag [2] = biological target: T1, EGFR-Flag; assay: co-IP with anti-V5, Western blot with anti-Flag, transfected 293T cells (FIG. 1D)
Experimental: as §1

Binder | binding result (EGFR-Flag [1]) | binding result (EGFR-Flag [2])
B1 | binds | 
B2 |  | binds
